Data published in patent US20200377604.

Experiments:
[1] = gel filtration of the Fc, mAU at 280 nm against time; low, broad peak at 19.477 min
[2] = gel filtration of the Fc, mAU at 280 nm against time; low, broad peak at 19.455 min

Protein | Area of the small peak ahead of the monomer peak (dimer position; not labelled Dimer on the sheet) [1] | Area of the small peak ahead of the monomer peak (dimer position; not labelled Dimer on the sheet) [2]
knob Fc F241S/F243R (protein) DKTHTSPPSPAPELLGGPSVSLRPPKPKDTLMISRTPEVTCVVVDVSHEDPEVKFNWYVDGVEVHNAKTKPREEQYNSTYRVVSVLTVLHQDWLNGKEYKCKVSNKALPAPIEKTISKAKGQPREPQVYTLPPSREEMTKNQVSLWCLVKGFYPSDIAVEWESNGQPENNYKTTPPVLDSDGSFFLYSKLTVDKSRWQQGNVFSCSVMHEALHNHYTQKSLSLSPGK | Area: 1943.99 | –
knob Fc F241R/F243S (protein) DKTHTSPPSPAPELLGGPSVRLSPPKPKDTLMISRTPEVTCVVVDVSHEDPEVKFNWYVDGVEVHNAKTKPREEQYNSTYRVVSVLTVLHQDWLNGKEYKCKVSNKALPAPIEKTISKAKGQPREPQVYTLPPSREEMTKNQVSLWCLVKGFYPSDIAVEWESNGQPENNYKTTPPVLDSDGSFFLYSKLTVDKSRWQQGNVFSCSVMHEALHNHYTQKSLSLSPGK | – | Area: 3287.62
